Usually Ki stands for the dissociation constant of the complex between target and ligand, obtained from inhibition or displacement. High values mean lower affinity, low ones higher affinity. For orientation: Kd means the free concentration of one partner at which half of the binding sites on the other are occupied at equilibrium, for simple one-to-one binding. A higher Kd goes with weaker binding.

This assay addresses CCR5-SNAP labeled with Alexa-488 (CCR5-SNAP-488) (human) (UniProt P51681). Put plainly: fluorescence cross-correlation spectroscopy.
UniProt P51681, sequence (P51681 whole entry): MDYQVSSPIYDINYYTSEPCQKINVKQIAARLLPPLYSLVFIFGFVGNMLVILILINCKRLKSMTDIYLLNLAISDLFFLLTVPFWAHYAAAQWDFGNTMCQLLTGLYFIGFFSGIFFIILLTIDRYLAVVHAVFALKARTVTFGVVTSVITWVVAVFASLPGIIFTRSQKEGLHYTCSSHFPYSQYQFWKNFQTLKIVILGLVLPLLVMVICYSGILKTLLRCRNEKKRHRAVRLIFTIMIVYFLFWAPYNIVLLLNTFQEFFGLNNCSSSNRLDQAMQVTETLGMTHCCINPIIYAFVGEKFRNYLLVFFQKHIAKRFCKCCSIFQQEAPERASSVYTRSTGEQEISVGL

“5P12-RANTES, non-labeled (from UniProt P13501 24-91) (ligand)”: the Ki amounted to 0.14 nM. In other words, the sub-nanomolar range.

“6P4-RANTES, non-labeled (from UniProt P13501 24-91) (ligand)” displayed an inhibitory constant (Ki) of 3.5 nM.

“Alexa-647-labeled 5P12-RANTES (5P12-647) (from UniProt P13501 24-91) (ligand)” registered a dissociation constant Kd of 0.37 nM.

For “Alexa-647-labeled 5P14-RANTES (5P14-647) (from UniProt P13501 24-91) (ligand)”, the Kd was determined as 0.48 nM.

Substance “Alexa-647-labeled 6P4-RANTES (6P4-647) (from UniProt P13501 24-91) (ligand)” came in with a Kd of 10.4 nM.

“Alexa-647-labeled PSC-RANTES (PSC-647) (from UniProt P13501 24-91) (ligand)” had a Kd of 6.6 nM.

Source of the values: doi:10.1101/575795.
